According to patent US20250129148A1 (ONCOONE RESEARCH AND DEVELOPMENT, published 2025):
Positions count from the first letter of the chain named.

B1: C0008 (control/reference anti-oxMIF antibody) (antibody, human IgG1, kappa, V domains shown)
VH: EVQLLESGGGLVQPGGSLRLSCAASGFTFSIYSMNWVRQAPGKGLEWVSSIGSSGGTTYYADSVKGRFTISRDNSKNTLYLQMNSLRAEDTAVYYCAGSQWLYGMDVWGQGTTVTVSS
VL: DIQMTQSPSSLSASVGDRVTITCRSSQRIMTYLNWYQQKPGKAPKLLIFVASHSQSGVPSRFRGSGSETDFTLTISGLQPEDSATYYCQQSFWTPLTFGGGTKVEIKR
notes: Human IgG1 with wt Fc; also called control antibody
B2: C0132 (Fc silenced anti-oxMIF x anti-HSG bispecific antibody, Fab/scFv-Fc) (bispecific antibody, human IgG1, kappa, L234A L235A)
heavy: not shown
chain: EVQLVESGGDLVKPGGSLKLSCAASGFTFSIYTMSWLRQTPGKGLEWVATLSGDGDDIYYPDSVKGRFTISRDNAKNSLYLQMNSLRAEDTALYYCARVRLGDWDFDVWGQGTTVSVSSGGSGGSGGSGGSGGSDIVMTQSPSSLAVSPGERVTLTCKSSQSLFNSRTRKNYLGWYQQKPGQSPKLLIYWASTRESGVPDRFSGSGSGTDFTLTINSLQAEDVAVYYCTQVYYLCTFGAGTKLELKGGGGSDKTHTCPPCPAPEAAGGPSVFLFPPKPKDTLMISRTPEVTCVVVDVSHEDPEVKFNWYVDGVEVHNAKTKPREEQYNSTYRVVSVLTVLHQDWLNGKEYKCKVSNKALPAPIEKTISKAKGQPREPQVCTLPPSRDELTKNQVSLSCAVKGFYPSDIAVEWESNGQPENNYKTTPPVLDSDGSFFLVSKLTVDKSRWQQGNVFSCSVMHEALHNHYTQKSLSLSPG
light: DIQMTQSPSSLSASVGDRVTITCRSSQRIMTYLNWYQQKPGKAPKLLIYVGSHSQSGVPSRFRGSGSETDFTLTISGLQPEDSATYYCQQSFFTPLTFGGGTKVEIKRTVAAPSVFIFPPSDEQLKSGTASVVCLLNNFYPREAKVQWKVDNALQSGNSQESVTEQDSKDSTYSLSSTLTLSKADYEKHKVYACEVTHQGLSSPVTKSFNRGEC
notes: One anti-oxMIF arm only; also called bsMab C0132
B3: C0133 (Fc silenced anti-oxMIF x anti-HSG bispecific antibody, Fab/Fab-scFv-Fc) (bispecific antibody, human IgG1, kappa, L234A L235A)
heavy: not shown
chain: EVQLQESGGGLVQPGGSLRLSCAASGFTFSIYSMNWVRQAPGKGLEWVSSIGSSGGTTYYADSVKGRFTISRDNSKNTLYLQMNSLRAEDTAVYYCAGSQYLYGMDVWGQGTTVTVSSASTKGPSVFPLAPSSKSTSGGTAALGCLVKDYFPEPVTVSWNSGALTSGVHTFPAVLQSSGLYSLSSVVTVPSSSLGTQTYICNVNHKPSNTKVDKKVEPKSCGGGGSGGGGSEVQLVESGGDLVKPGGSLKLSCAASGFTFSIYTMSWLRQTPGKGLEWVATLSGDGDDIYYPDSVKGRFTISRDNAKNSLYLQMNSLRAEDTALYYCARVRLGDWDFDVWGQGTTVSVSSGGSGGSGGSGGSGGSDIVMTQSPSSLAVSPGERVTLTCKSSQSLFNSRTRKNYLGWYQQKPGQSPKLLIYWASTRESGVPDRFSGSGSGTDFTLTINSLQAEDVAVYYCTQVYYLCTFGAGTKLELKGGGGSGGGGSKTHTCPPCPAPEAAGGPSVFLFPPKPKDTLMISRTPEVTCVVVDVSHEDPEVKFNWYVDGVEVHNAKTKPREEQYNSTYRVVSVLTVLHQDWLNGKEYKCKVSNKALPAPIEKTISKAKGQPREPQVCTLPPSRDELTKNQVSLSCAVKGFYPSDIAVEWESNGQPENNYKTTPPVLDSDGSFFLVSKLTVDKSRWQQGNVFSCSVMHEALHNHYTQKSLSLSPG
light: B2 light
notes: also called bsMab C0133
B4: C0115 (Fc silenced anti-oxMIF antibody) (antibody, human IgG1, kappa, L234A L235A, V domains shown)
VH: B1 VH with L5Q, W101Y
VL: B1 VL with F49Y, A51G, W93F
B5: C0118 (Fc silenced anti-oxMIF antibody) (antibody, human IgG1, kappa, L234A L235A, V domains shown)
VH: B1 VH with L5Q, W101Y
VL: B1 VL with M30L, F49Y, A51G, P80S, W93F

Molecular target: T1, oxMIF (recombinant human MIF immobilized into ELISA plates, transforming MIF to oxMIF) (human, UniProt P14174 2-115)
T1 construct: Oxidised conformational isoform produced by coating the plate at 1 ug/ml in PBS overnight; also called immobilized MIF (oxMIF); immobilized oxMIF
Test: ELISA on immobilized MIF (oxMIF), 4-parameter fit
Procedure: (§1) Recombinant human MIF diluted in PBS at 1 μg/ml was immobilized into ELISA plates overnight at 4° C. (transforming MIF to oxMIF according to Thiele et al., 2015). After blocking, serial dilutions of anti-oxMIF antibodies were added to the plates. Finally, bound antibodies were detected using a Goat anti-human IgG (Fc)-HRP conjugate and tetramethylbenzidine (TMB) as substrate. The chromogenic reaction was stopped with 3M H₂SO₄ and OD was measured at 450 nm. Data from different experiments were normalized to the maximal OD of the anti-oxMIF antibody C0008 (=100%) of the respective experiment and EC₅₀ values were determined by 4-parameter fit using GraphPad Prism (and the mean+/−SEM of two experiments is shown).
Materials and Methods: Recombinant human MIF diluted in PBS at 1 μg/ml was immobilized into ELISA plates overnight at 4° C. (transforming MIF to oxMIF according to Thiele et al., 2015). After blocking, serial dilutions of antibodies were added to the plates, and ELISA was performed as described in the Example 3.

T1 sequence (P14174 2-115 limits assumed): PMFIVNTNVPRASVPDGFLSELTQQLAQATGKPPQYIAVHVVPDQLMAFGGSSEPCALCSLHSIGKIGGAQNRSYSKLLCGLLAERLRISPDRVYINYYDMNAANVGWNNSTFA

Row | EC50 [nM] | Binder
1 | 0.158 | B1
2 | 2.51 | B2
3 | 0.242 | B3

Molecular target: T1, oxMIF (recombinant human MIF …)
Test: ELISA on immobilized MIF (oxMIF); EC50 of 4-parameter fit given as apparent KD
Procedure: as §1
Anti-oxMIF antibodies were detected by an anti-human-IgG (Fc)-HRP conjugate, C0008 was used as reference antibody. EC₅₀ values were determined by sigmoidal, 4-parameter equation using GraphPad Prism (mean+/−SEM of two experiments is shown)

Row | Kd [nM] | Binder
4 | 0.19 | B1
5 | 0.28 | B4
6 | 0.26 | B5
